{"source": "patent US10005838B2", "about": "“Milk fat globule epidermal growth factor 8 regulates fatty acid uptake” (REGENTS OF THE UNIVERSITY OF CALIFORNIA, priority 2013, dated 2018)", "molecules": {"B1": {"name": "SEQ ID NO:4: mouse Mfge8 sequence lacking the second discoidan domain but including all other native sequence (protein)", "chain": "MQVSRVLAALCGMLLCASGLFAASGDFCDSSLCLNGGTCLTGQDNDIYCLCPEGFTGLVCNETERGPCSPNPCYNDAKCLVTLDTQRGDIFTEYICQCPVGYSGIHCETETNYYNLDGEYMFTTAVPNTAVPTPAPTPDLSNNLASRCSTQLGMEGGAIADSQISASSVYMGFMGLQRWGPELARLYRTGIVNAWTASNYDSKPWIQVNLLRKMRVSGVMTQGASRAGRAEYLKTFKVAYSLDGRKFEFIQDESGGDKEFLGNLDNNSLKVNMFNPTLEAQYIKLYPVSCHRGCTLRFELLGCKPFMARYVRVLPVSWHNRITLRLELLGC", "modifications": "synthetic E1E2D1 mouse milk fat globule epidermal growth factor 8 (Mfge8) long construct (lacking second discoidin domain)"}}, "experiment": "Activity of Mfge8 sequence lacking the second discoidin domain (test not named at the place)", "details": "mouse Mfge8 lacking the second discoidin domain"}
{"molecule": "B1", "values": [{"measurement": "activity of the Mfge8 fragment", "result": "remains active"}]}
